Measurements reported in publication PMC9483790.

Target: endogenous pyruvate kinase M2 (PKM2) (human (endogenous in PLC/PRF/5, SMMC-7721, HCCLM3, Huh7)) (UniProt P14618)
Assay: cross-linking

Sequence of endogenous pyruvate kinase M2 (PKM2), P14618 1-531 (enzyme; other documents disagree on this pair) (P14618 whole entry): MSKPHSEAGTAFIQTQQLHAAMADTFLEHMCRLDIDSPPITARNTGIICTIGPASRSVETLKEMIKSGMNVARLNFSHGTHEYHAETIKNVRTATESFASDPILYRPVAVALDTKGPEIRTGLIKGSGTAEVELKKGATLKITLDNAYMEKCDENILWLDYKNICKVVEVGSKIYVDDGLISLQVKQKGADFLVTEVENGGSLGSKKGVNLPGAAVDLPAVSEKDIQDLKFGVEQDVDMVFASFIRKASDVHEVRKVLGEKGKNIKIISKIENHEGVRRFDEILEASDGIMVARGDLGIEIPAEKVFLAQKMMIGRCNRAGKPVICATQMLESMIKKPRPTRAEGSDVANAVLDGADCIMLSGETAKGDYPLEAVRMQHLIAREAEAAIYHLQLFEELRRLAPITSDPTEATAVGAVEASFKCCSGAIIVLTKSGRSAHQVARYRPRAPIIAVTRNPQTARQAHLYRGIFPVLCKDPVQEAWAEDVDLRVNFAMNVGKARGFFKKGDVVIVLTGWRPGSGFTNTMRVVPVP

stoichiometry N: 2
Substance: endogenous pyruvate kinase M2 (PKM2), P14618 1-531 (enzyme; other documents disagree on this pair)
